Substitutions are numbered along the chain they refer to. Read-outs that look alike come from different tables or passages of the source. Blank lines part the entries; values can stand above or below the molecule they belong to.
Tests used:
FtsA(ΔMTS) [1] = biological target: T1, FtsA(ΔMTS) (Escherichia coli, UniProt P0ABH0); test: sedimentation of polymers; assay type: biochemical; conditions: 50 mM Tris-HCl pH 7.5, 150 mM KCl, 4 mM MgCl2, 23 °C; polymerisation
T1 sequence (P0ABH0 1-404): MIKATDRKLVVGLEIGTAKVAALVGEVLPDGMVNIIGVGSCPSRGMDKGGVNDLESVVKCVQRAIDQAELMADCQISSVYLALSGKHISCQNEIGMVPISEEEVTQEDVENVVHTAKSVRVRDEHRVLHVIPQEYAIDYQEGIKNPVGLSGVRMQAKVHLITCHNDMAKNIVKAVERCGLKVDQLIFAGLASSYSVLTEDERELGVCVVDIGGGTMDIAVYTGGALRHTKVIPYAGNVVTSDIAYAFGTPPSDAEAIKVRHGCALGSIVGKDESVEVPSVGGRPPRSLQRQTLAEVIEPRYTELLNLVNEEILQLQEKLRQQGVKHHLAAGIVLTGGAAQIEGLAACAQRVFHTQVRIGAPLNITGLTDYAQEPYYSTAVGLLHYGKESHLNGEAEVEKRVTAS

FtsA(ΔMTS) [2] = biological target: T1, FtsA(ΔMTS); conditions: 50 mM Tris-HCl pH 7.5, 150 mM KCl, 4 mM MgCl2, 23 °C, ATP 4 mM; polymerisation
FtsA(E14R) = biological target: T2, FtsA(E14R) (E. coli, UniProt P0ABH0 1-420, E14R); test: co-sedimentation
T2 sequence: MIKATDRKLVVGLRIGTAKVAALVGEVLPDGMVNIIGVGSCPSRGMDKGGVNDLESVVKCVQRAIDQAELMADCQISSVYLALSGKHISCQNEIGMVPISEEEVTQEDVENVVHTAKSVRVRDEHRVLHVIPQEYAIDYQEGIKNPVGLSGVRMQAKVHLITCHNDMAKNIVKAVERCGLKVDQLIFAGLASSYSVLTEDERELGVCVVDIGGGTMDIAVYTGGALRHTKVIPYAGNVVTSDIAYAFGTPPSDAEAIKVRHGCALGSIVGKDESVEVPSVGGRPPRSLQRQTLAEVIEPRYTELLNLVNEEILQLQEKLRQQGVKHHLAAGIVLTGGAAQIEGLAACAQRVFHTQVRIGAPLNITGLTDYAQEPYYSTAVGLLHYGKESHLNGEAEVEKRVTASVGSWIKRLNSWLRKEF

Escherichia coli FtsA = biological target: T3, Escherichia coli FtsA (E. coli, UniProt P0ABH0 1-420); test: co-sedimentation
T3 sequence: T2 sequence with R14E

[3] = biological target: the molecule itself; test: negative-stain transmission electron microscopy
FtsA(ΔMTS) [4] = biological target: T4, FtsA(ΔMTS) (E. coli, UniProt P0ABH0 1-404); test: negative-stain transmission electron microscopy
T4 sequence: T1 sequence (P0ABH0 1-404)

FtsA(ΔMTS) [5] = biological target: T4, FtsA(ΔMTS); test: bead recruitment assay

% FtsA(ΔMTS) in pellet (FtsA(ΔMTS) [2]): 50.0%
Molecule: Nc1ncnc2c1ncn2[C@@H]1O[C@H](COP(=O)(O)OP(=O)(O)OP(=O)(O)O)[C@@H](O)[C@H]1O [ATP]

binding result (FtsA(E14R)): binds
binding result (Escherichia coli FtsA): binds
binding result (FtsA(ΔMTS) [4]): binds
B1: Escherichia coli FtsZ (natural protein)
chain: MFEPMELTNDAVIKVIGVGGGGGNAVEHMVRERIEGVEFFAVNTDAQALRKTAVGQTIQIGSGITKGLGAGANPEVGRNAADEDRDALRAALEGADMVFIAAGMGGGTGTGAAPVVAEVAKDLGILTVAVVTKPFNFEGKKRMAFAEQGITELSKHVDSLITIPNDKLLKVLGRGISLLDAFGAANDVLKGAVQGIAELITRPGLMNVDFADVRTVMSEMGYAMMGSGVASGEDRAEEAAEMAISSPLLEDIDLSGARGVLVNITAGFDLRLDEFETVGNTIRAFASDNATVVIGTSLDPDMNDELRVTVVATGIGMDKRPEITLVTNKQVQQPVMDRYQQHGMAPLTQEQKPVAKVVNDNAPQTAKEPDYLDIPAFLRKQAD
binding result [3]: binds

The remaining lines, values behind:

Molecule: Nc1ncnc2c1ncn2[C@@H]1O[C@H](COP(=O)(O)OP(=O)(O)O)[C@@H](O)[C@H]1O [ADP]
% FtsA(ΔMTS) in pellet (FtsA(ΔMTS) [1]): 22.4%

B2: H6-Gfp-FtsZ (natural protein)
chain: B1 chain
binding result (FtsA(ΔMTS) [5]): binds

Reference: article PMC8897712 (The Journal of Biological Chemistry, 2022)
